Changes are numbered by the printed parent chain.
B1: ePGDM9 (antibody, V domains shown)
VH: QAQLVQSGPEVRKPGTSVKVSCKNPGNTLTTYDLHWVRQVPGQGLQWMGWISHEGDKKVIVERFKAKVTIDWDRSTNTAYLQLSGLTSEDTAVYYCAKGSKHRLRDYALYDEDGALNWAVDVDYLANLEFWGQGTAVTVSS
VL: DIVLTQSPLSLSVTPGESASISCKSSQSLIHGDRNNYLAWYVQKPGRSPQLLIDLASERASGVPDRFSGSGSRKDFTLKISRVETEDVGTYYCMQGRESPWTFGQGTKVDIK
B2: PGDM1400 (antibody, V domains shown)
VH: B1 VH with A2V, Q3H, V5T, N24A, T30K, Q39S, E89G, E112D, A126S
VL: B1 VL with I2F, L9H, Q27H, D54Y, E58S, R73D
B3: ePGDM5 (antibody, V domains shown)
VH: B1 VH
VL: B1 VL with I2F, S26D, Q27H, I30Q, S81D, T85A
B4: ePGDM13 (antibody, V domains shown)
VH: B1 VH
VL: B1 VL with Q27H, I30Q, I53L, R73E

What was measured:
Test in all cases: cell-based or functional assay
HIV Env, isolate PVO.4 = HIV Env, isolate PVO.4 (HIV)
[1] = target: HIV Env, isolate SC05_8C11_2344 (HIV)
[2] = target: HIV Env, isolate WEAU_d15_410_5017 (HIV)
[3] = target: HIV Env, isolate WITO4160.33 (HIV)
HIV Env, isolate CNE19 = HIV Env, isolate CNE19 (HIV)
HIV Env, isolate CNE20 = HIV Env, isolate CNE20 (HIV)
[4] = target: HIV Env, isolate Ce0393_C3 (HIV)
[5] = target: HIV Env, isolate Ce1172_H1 (HIV)
[6] = target: HIV Env, isolate Du172.17 (HIV)
[7] = target: HIV Env, isolate HIV-0013095-2.11 (HIV)
[8] = target: HIV Env, isolate HIV-16055-2.3 (HIV)
[9] = target: HIV Env, isolate ZM197M.PB7 (HIV)
HIV Env, isolate T278-50 = HIV Env, isolate T278-50 (HIV)
[10] = target: HIV Env, isolate ZM249M.PL1 (HIV)
[11] = target: HIV Env, isolate ZM53M.PB12 (HIV)
[12] = target: HIV Env, isolate 6811.v7.c18 (HIV)
[13] = target: HIV Env, isolate 6240_08_TA5_4622 (HIV)

Row | Binder | IC80 (µg/ml) with constrains (HIV Env, isolate PVO.4) [µg/mL] | IC80 (µg/ml) with constrains [1] [µg/mL] | IC80 (µg/ml) with constrains [2] [µg/mL] | IC80 (µg/ml) with constrains [3] [µg/mL] | IC80 (µg/ml) with constrains (HIV Env, isolate CNE19) [µg/mL] | IC80 (µg/ml) with constrains (HIV Env, isolate CNE20) [µg/mL] | IC80 (µg/ml) with constrains [4] [µg/mL] | IC80 (µg/ml) with constrains [5] [µg/mL] | IC80 (µg/ml) with constrains [6] [µg/mL] | IC80 (µg/ml) with constrains [7] [µg/mL] | IC80 (µg/ml) with constrains [8] [µg/mL] | IC80 (µg/ml) with constrains [9] [µg/mL] | IC80 (µg/ml) with constrains (HIV Env, isolate T278-50) [µg/mL] | IC80 (µg/ml) with constrains [10] [µg/mL] | IC80 (µg/ml) with constrains [11] [µg/mL] | IC80 (µg/ml) with constrains [12] [µg/mL] | IC80 (µg/ml) with constrains [13] [µg/mL]
1 | B1 | 7.7 | 4.25 | 0.009 | 0.009 | 0.012 | 0.008 | 0.017 | 0.108 | 3.46 | > 100 | 0.006 | 0.092 | 2.02 | 0.008 | 0.026 | > 100 | 6.6
2 | B2 | 13.6 | 17.8 | 0.3 | 0.013 | 0.019 | 0.021 | 0.037 | 0.872 | 21.7 | > 100 | 0.013 | 0.282 | 21.7 | 0.101 | 0.034 | > 100 | > 100
3 | B3 | 5.57 | 14.5 | 0.003 | 0.015 | 0.012 | 0.015 | 0.063 | 0.065 | 5.98 | > 100 | 0.007 | 0.141 | 4.23 | 0.138 | 0.022 | > 100 | 8.09
4 | B4 | 11.8 | 9.44 | 0.012 | 0.013 | 0.013 | 0.015 | 0.022 | 0.242 | 6 | > 100 | 0.011 | 0.24 | 6.4 | 0.056 | 0.022 | > 100 | 12.6

Source: US20230134571A1 (INTERNATIONAL AIDS VACCINE INITIATIVE, published 2023)
